Data as given in patent US6071733.

Assays:
[1] = biological target: polypeptide Hex3, polypeptide of subunit (B) of the hexaprenyl diphosphate synthetase of Micrococcus luteus B-P 26 (Micrococcus luteus B-P 26)
[2] = biological target: polypeptide GERC3, subunit of the heptaprenyl diphosphate synthetase of Bacillus subtilis (ATCC 6633) (Bacillus subtilis (ATCC 6633)) (UniProt P31114)
[3] = biological target: polypeptide Hep2, subunit of the thermoresistant heptaprenyl diphosphate synthetase of Bacillus stearothermophilus (ATCC 10149) (Bacillus stearothermophilus (ATCC 10149))
[4] = biological target: Hex2, protein encoded by hex2 of Micrococcus luteus B-P 26 (Micrococcus luteus B-P 26)

Row | Activity (dpm), prenyl diphosphate (HexPP) synthetase activity of mixed crude homogenates [1] [dpm] | Activity (dpm), HepPS activity of proteins mixed in equal amounts [2] [dpm] | Activity (dpm), HepPS activity of proteins mixed in equal amounts [3] [dpm] | Activity (dpm), prenyl diphosphate (HexPP) synthetase activity of mixed crude homogenates [4] [dpm] | Substance
1 | 0 | – | – | – | Hex2, protein encoded by hex2 of Micrococcus luteus B-P 26
2 | – | 136 | 7920 | – | polypeptide GERC1, subunit of the heptaprenyl diphosphate synthetase of Bacillus subtilis (ATCC 6633) (enzyme)
3 | – | – | 0 | – | polypeptide Hep1, subunit of the heptaprenyl diphosphate synthetase of Bacillus stearothermophilus (ATCC 10149) (from UniProt P55784) (enzyme)
4 | 2920 | – | – | 0 | polypeptide Hex1, polypeptide of subunit (A) of the hexaprenyl diphosphate synthetase of Micrococcus luteus B-P 26 (enzyme)
